# Measured values reported in US9447158B2.
# Molecular target: MAPKAP Kinase II (MK2)
binder,measurement,value
WLRRIKA,% of … [SEQ ID NO: 115] Reaction Velocity at an Inhibitor Concentration of 100 µM,394%
